The term stoichiometry N denotes a count of units in the complex or per binding partner. What is called Kd is the concentration at which binding is half-saturated. A high value points to lower affinity. One may read the Ki as the equilibrium dissociation constant of an inhibitor or competing ligand from its target.

Consider seven molecules from paper PMC11142274 (bioRxiv, 2024).

In series [1] the target is T1, mouse CNPase catalytic domain (mouse, UniProt P16330). In words: SEC-SAXS. In general terms: In gel filtration, larger molecules generally elute earlier.
The target of series [2] is T2, full-length mouse CNPase (Mus musculus, UniProt P16330). Nature of the series: DSF thermal shift.
T2 sequence (P16330 whole entry, the tested form may be a part): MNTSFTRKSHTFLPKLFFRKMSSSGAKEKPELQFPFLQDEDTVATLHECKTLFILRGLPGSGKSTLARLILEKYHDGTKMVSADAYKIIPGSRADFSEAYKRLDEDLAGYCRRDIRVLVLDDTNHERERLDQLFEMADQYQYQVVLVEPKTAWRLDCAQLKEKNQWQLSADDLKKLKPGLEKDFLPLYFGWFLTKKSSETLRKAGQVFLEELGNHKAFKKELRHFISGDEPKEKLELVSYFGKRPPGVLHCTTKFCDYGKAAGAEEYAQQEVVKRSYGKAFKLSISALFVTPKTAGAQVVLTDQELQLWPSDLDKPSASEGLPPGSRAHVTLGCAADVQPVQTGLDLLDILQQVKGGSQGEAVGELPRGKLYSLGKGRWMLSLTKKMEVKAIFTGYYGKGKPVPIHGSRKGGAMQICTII
Series [3] has as its target T1, mouse CNPase catalytic domain. In words: ITC. For orientation: Isothermal titration calorimetry measures the heat released or taken up as one component is titrated into another.
Series [4] addresses T2, full-length mouse CNPase. Nature of the series: enzyme inhibition kinetics.
Series [5] concerns the target T1, mouse CNPase catalytic domain. Nature of the series: SEC-SAXS. The source holds these as a separate data set.
Series [6] has as its target T3, Tom70-EGFP-CNPase-ALFAtag (Mus musculus (assumed)).
T3 chain: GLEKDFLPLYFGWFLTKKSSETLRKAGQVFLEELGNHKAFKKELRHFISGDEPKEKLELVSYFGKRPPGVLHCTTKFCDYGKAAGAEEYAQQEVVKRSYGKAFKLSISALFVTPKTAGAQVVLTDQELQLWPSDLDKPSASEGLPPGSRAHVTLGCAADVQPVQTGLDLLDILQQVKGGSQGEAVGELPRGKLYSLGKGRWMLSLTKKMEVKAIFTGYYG
In words: co-localisation with a target anchored to mitochondria.

The target in series [7] is T2, full-length mouse CNPase. Nature of the series: nanoDSF thermal shift.

B1: anti-CNPase nanobody NbCNP 8C (VHH)
VHH: EVQLEESGGGLVQAGGSLTLSCAASGFTFDDYAMGWYRQAPGKERVGVSCISRTDGYTYYLDSVKGRFTISTDHAKHTVYLQMNNLKPDDTGLYYCAADADPEYGSRCPDPYYGMDYWGKGILVTVSS
As to B1, the “stoichiometry N” value in series [1] worked out at 1. Also, in the series with full-length mouse CNPase [2], the “ΔTm of CNPase” value is 9.2 °C. Also, in series [3], the Kd amounted to 16.6 nM, the dH is -7.07 kcal/mol and the “stoichiometry N” value is 0.914.

B2: anti-CNPase nanobody NbCNP 10E (VHH)
VHH: EVQLEESGGGLVQPGGSLRLSCAVSGITLDDFGIGWFRQAPGKEREGVACISPGYEHIYYADSAKGRFTISRDNAKNTVYLQMNNLKPWDTGVYYCAADNDLPDRLWGGSDWSDPSPYDYWGQGTQVTVSS
In the case of B2, in the series with full-length mouse CNPase [4], the affinity corresponds to a Ki of 0.604 ± 0.0507 nM. For the same molecule, the “ΔTm of CNPase” value with full-length mouse CNPase [2] was 4.2 °C. Further, in series [3], the Kd was 9.8 nM, the dH is -12.1 kcal/mol and the “stoichiometry N” value turned out to be 0.804. Also, in series [5], the “stoichiometry N” value was 2 molecules of CNPase per 10E molecule.

B3: MaBP-10E (His6-maltose binding protein fusion of NbCNP 10E) (VHH)
VHH: EVQLEESGGGLVQPGGSLRLSCAVSGITLDDFGIGWFRQAPGKEREGVACISPGYEHIYYADSAKGRFTISRDNAKNTVYLQMNNLKPWDTGVYYCAADNDLPDRLWGGSDWSDPSPYDYWGQGTQVTVSS
In the case of B3, in series [3], the affinity, expressed as Kd, was 13.4 nM; the dH was -18.1 kcal/mol; the “stoichiometry N” value stood at 0.836.

B4: iNbCNP 10E fused to mRuby3 (VHH)
VHH: EVQLEESGGGLVQPGGSLRLSCAVSGITLDDFGIGWFRQAPGKEREGVACISPGYEHIYYADSAKGRFTISRDNAKNTVYLQMNNLKPWDTGVYYCAADNDLPDRLWGGSDWSDPSPYDYWGQGTQVTVSS
Regarding B4, the binding result in series [6] is recorded as “binds”.

B5: anti-CNPase nanobody NbCNP 8D (VHH)
VHH: EVQLEESGGGLVQPGGSLRLSCAASGFTFSSYVMSWVRQAPGKGLEWVSDINSGGSRTYYTDSVKGRFTISRDNAKNTLYLQMNSLKPEDTAVYYCARDSLLSTRYLHTSERGQGTQVTVSS
Consider B5, for which the “ΔTm of CNPase” value with full-length mouse CNPase [2] was 18 °C; with full-length mouse CNPase [7] it was 17.7 °C.

B6: iNbCNP 8D fused to mRuby3 (VHH)
VHH: EVQLEESGGGLVQPGGSLRLSCAASGFTFSSYVMSWVRQAPGKGLEWVSDINSGGSRTYYTDSVKGRFTISRDNAKNTLYLQMNSLKPEDTAVYYCARDSLLSTRYLHTSERGQGTQVTVSS
In the case of B6, in series [6], the binding result was “binds”.

B7: anti-CNPase nanobody NbCNP 7E (VHH)
VHH: EVQLEESGGGWVHPGGSLRLSCAASGNVFGVNTMAWYRQAPGKQREQRELVASITDYGTTEYADSVKGRFTISGDNAKATVYLQMNSLKPEDTAVYYCNMDLTVMTATSSLYAYDYWGQGTQVTVSS
For B7, the “stoichiometry N” value in series [1] worked out at 1. Moreover, the “ΔTm of CNPase” value with full-length mouse CNPase [2] was determined as 2.1 °C. In addition, in series [3], binding was characterised by a dissociation constant (Kd) of 83.3 nM, the dH is -14.2 kcal/mol and the “stoichiometry N” value came to 0.863.
